According to PMC4469607:

Key:
[1] = biological target: Hcp from Acinetobacter baumannii AB0057, tag-free (Acinetobacter baumannii strain AB0057); test: AUC; sedimentation equilibrium, 20°C, Hcp at 1.0 and 2.5 mg/ml, 20 mM Tris-HCl pH 7.5, 200 mM NaCl, 0.2 mM DTT, 2% glycerol
[2] = biological target: Hcp from Acinetobacter baumannii AB0057, tag-free (Acinetobacter baumannii strain AB0057); test: negative-staining electron microscopy; Hcp at 0.02 mg/ml in 20 mM Tris-HCl pH 7.5, 200 mM NaCl, 2 mM DTT, stained with 1% uranyl formate; reference-free 2D classification
[3] = biological target: Hcp from Acinetobacter baumannii AB0057, C-terminal His-tagged (Acinetobacter baumannii strain AB0057); test: crystal structure; X-ray, 1.55 Å, space group P6; crystals from 2.0 M ammonium sulfate, 0.1 M Hepes pH 7.5, 4°C; hexamer made by the 6-fold crystallographic symmetry; interfaces analysed with PISA

| Substance | stoichiometry N [1] | stoichiometry N [2] | stoichiometry N [3] |
| --- | --- | --- | --- |
| Hcp from Acinetobacter baumannii AB0057, tag-free (natural protein) | 6 | 6 | – |
| Hcp from Acinetobacter baumannii AB0057, C-terminal His-tagged (natural protein) | – | – | 6 |
